Where two headings read alike, the source gives them in different places.
What was measured:
human GDNF protein [1] = target: T1, human GDNF protein (human, UniProt P39905 78-211); experiment: ELISA, coated protein
T1 construct: Bought
T1 sequence (looked up): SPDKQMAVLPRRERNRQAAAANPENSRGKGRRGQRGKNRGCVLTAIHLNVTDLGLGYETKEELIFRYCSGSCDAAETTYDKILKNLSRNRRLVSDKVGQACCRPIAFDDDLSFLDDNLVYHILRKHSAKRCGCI

human GDNF protein [2] = target: T1, human GDNF protein; experiment: ELISA, coated protein, antibody at 4 µg/mL
human GDF2 protein = target: T2, human GDF2 protein (human, UniProt Q9UK05 320-429); experiment: ELISA, coated protein, antibody at 4 µg/mL
T2 construct: Bought
T2 sequence (looked up): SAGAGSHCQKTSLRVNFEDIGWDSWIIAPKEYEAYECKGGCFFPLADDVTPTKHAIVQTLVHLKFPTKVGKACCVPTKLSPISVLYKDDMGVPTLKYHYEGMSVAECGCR

human GDF3 protein = target: T3, human GDF3 protein (human, UniProt Q9NR23 251-364, limits assumed); experiment: ELISA, coated protein, antibody at 4 µg/mL
T3 construct: Bought
T3 sequence (looked up): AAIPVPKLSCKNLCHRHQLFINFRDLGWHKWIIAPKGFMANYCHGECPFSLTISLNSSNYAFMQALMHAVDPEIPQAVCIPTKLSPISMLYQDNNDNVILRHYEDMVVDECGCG

human BMP4 protein = target: T4, human BMP4 protein (human, UniProt P12644 293-408); experiment: ELISA, coated protein, antibody at 4 µg/mL
T4 construct: Bought
T4 sequence (looked up): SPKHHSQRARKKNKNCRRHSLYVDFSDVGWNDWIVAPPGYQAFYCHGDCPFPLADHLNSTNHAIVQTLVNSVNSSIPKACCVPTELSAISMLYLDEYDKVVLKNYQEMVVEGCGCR

human GDF11 protein = target: T5, human GDF11 protein (human, UniProt O95390 299-407); experiment: ELISA, coated protein, antibody at 4 µg/mL
T5 construct: Bought
T5 sequence (looked up): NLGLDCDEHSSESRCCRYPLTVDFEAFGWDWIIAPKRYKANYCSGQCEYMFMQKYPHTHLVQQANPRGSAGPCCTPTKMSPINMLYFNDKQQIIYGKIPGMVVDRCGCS

human GDNF protein [3] = target: T1, human GDNF protein; experiment: ELISA, coated protein, antibody at 4 µg/mL; remark: listed apart in the source
human TGFβ1 protein = target: T6, human TGFβ1 protein (human, UniProt P01137 279-390); experiment: ELISA, coated protein, antibody at 4 µg/mL
T6 construct: Bought

human GFRα1 protein = target: T7, human GFRα1 protein (human, UniProt P56159 25-429, limits assumed); experiment: ELISA, coated protein, antibody at 4 µg/mL
T7 construct: Bought
T7 sequence (looked up): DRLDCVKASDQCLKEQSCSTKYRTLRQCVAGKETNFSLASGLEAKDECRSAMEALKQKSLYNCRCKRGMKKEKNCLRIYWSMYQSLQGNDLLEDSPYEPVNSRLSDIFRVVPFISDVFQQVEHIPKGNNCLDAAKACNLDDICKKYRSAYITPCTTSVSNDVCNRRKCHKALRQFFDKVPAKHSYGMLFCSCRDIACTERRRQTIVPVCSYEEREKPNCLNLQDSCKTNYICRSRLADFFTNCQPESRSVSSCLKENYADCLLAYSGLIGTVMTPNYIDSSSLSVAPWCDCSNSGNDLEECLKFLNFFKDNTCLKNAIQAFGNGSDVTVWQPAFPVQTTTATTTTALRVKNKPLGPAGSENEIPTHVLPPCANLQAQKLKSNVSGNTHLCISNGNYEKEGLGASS

human BMP2 protein = target: T8, human BMP2 protein (human, UniProt P12643 283-396); experiment: ELISA, coated protein, antibody at 4 µg/mL
T8 construct: Bought

human Activin B protein = target: T9, human Activin B protein (human, UniProt P09529 293-407); experiment: ELISA, coated protein, antibody at 4 µg/mL
T9 construct: Bought; Activin B is by nature a dimer of inhibin beta B chains
T9 sequence (looked up): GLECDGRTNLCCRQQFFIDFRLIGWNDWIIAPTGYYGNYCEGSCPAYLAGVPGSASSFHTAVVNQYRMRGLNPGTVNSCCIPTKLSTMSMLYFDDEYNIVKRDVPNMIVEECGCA

Human GDF15 protein [4] = target: T10, Human GDF15 protein (human, UniProt Q99988 197-308); experiment: ELISA, coated protein, antibody at 4 µg/mL
T10 construct: Natural GDF15 is said to be a disulfide-linked homodimer; also called Human-GDF15-his
T10 sequence: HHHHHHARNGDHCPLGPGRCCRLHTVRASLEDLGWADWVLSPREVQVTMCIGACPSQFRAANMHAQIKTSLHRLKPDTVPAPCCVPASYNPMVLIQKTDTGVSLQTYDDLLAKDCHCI

Human GDF15 protein [5] = target: T10, Human GDF15 protein; experiment: BLI (Fortebio Octet), antibody on AHC sensor, GDF15 as analyte, 1:1 model
[6] = target: T11, Cynomolgus monkey GDF15 protein (cynomolgus monkey, UniProt G7PWZ3 193-308); experiment: as above
T11 construct: Bought protein (Kactus Biosystems GDF-CE115); also called Cynomolgus GDF15 protein; Cynomolgus-GDF15
T11 sequence: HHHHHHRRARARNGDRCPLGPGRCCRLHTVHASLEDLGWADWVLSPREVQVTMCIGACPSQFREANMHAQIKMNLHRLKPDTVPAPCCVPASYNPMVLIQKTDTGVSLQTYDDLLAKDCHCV

Mouse GDF15 protein = target: T12, Mouse GDF15 protein (mouse, UniProt Q9Z0J7 189-303); experiment: as above
T12 sequence: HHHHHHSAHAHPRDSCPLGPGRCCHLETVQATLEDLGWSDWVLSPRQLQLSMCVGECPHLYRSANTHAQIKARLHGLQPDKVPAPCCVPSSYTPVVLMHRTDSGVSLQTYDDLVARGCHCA

human GDNF protein [7] = target: T1, human GDNF protein; experiment: ELISA, coated protein, antibody at 4 µg/mL; remark: listed apart in the source

T8 sequence (P12643 283-396 limits assumed): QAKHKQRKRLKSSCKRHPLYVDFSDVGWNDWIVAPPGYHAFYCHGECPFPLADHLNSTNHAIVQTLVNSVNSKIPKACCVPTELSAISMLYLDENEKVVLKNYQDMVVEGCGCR
T6 sequence (P01137 279-390 limits assumed): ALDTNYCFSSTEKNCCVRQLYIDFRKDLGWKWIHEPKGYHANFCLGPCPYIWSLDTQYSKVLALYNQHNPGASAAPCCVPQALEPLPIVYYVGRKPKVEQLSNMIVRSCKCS

B1: Hu19C4C7 (antibody, human IgG1, kappa)
heavy: QVQLVQSGAEVKKPGSSVKVSCKASGYSFTGYIMNWVRQAPGQSLEWMGDIDPYYGGPNYNQKFQGRVTITVDKSTSTAYMELSSLRSEDTAVYYCSRRDYNYGSFAYWGQGTLVTVSSASTKGPSVFPLAPSSKSTSGGTAALGCLVKDYFPEPVTVSWNSGALTSGVHTFPAVLQSSGLYSLSSVVTVPSSSLGTQTYICNVNHKPSNTKVDKKVEPKSCDKTHTCPPCPAPEAAGAPSVFLFPPKPKDTLMISRTPEVTCVVVDVSHEDPEVKFNWYVDGVEVHNAKTKPREEQYNSTYRVVSVLTVLHQDWLNGKEYKCKVSNKALPAPIEKTISKAKGQPREPQVYTLPPSREEMTKNQVSLTCLVKGFYPSDIAVEWESNGQPENNYKTTPPVLDSDGSFFLYSKLTVDKSRWQQGNVFSCSVMHEALHNHYTQKSLSLSPGK
light: QIVLTQSPATLSLSPGERATLSCRASSSVNYMHWYQQKPGQAPRPLIYATSNLATGIPARFSGSGSGTDYTLTISSLEPEDFAVYYCQQWSDNPPTFGQGTKLEIKRTVAAPSVFIFPPSDEQLKSGTASVVCLLNNFYPREAKVQWKVDNALQSGNSQESVTEQDSKDSTYSLSSTLTLSKADYEKHKVYACEVTHQGLSSPVTKSFNRGEC
notes: Humanized form of murine 19C4C7; human IgG1 constant region with L234A, L235A, G237A and kappa light chain constant region; also called hu19C4C7-IgG1-mut(L234A,L235A,G237A)
- binding result (human GDNF protein [1]): no binding (tested: 4 µg/mL)
- OD value (human GDNF protein [2]): 0.0531 OD 450 nm-620 nm
- OD value (human GDF2 protein): 0.0616 OD 450 nm-620 nm
- OD value (human GDF3 protein): 0.0862 OD 450 nm-620 nm
- OD value (human BMP4 protein): 0.0587 OD 450 nm-620 nm
- OD value (human GDF11 protein): 0.0735 OD 450 nm-620 nm
- OD value (human GDNF protein [3]): 0.241 OD 450 nm-620 nm
- OD value (human TGFβ1 protein): 0.103 OD 450 nm-620 nm
- OD value (human GFRα1 protein): 0.11 OD 450 nm-620 nm
- OD value (human BMP2 protein): 0.0764 OD 450 nm-620 nm
- OD value (human Activin B protein): 0.12 OD 450 nm-620 nm
- OD value (Human GDF15 protein [4]): 2.47 OD 450 nm-620 nm
- Kd (Human GDF15 protein [5]): 0.0264 nM
- koff (Human GDF15 protein [5]): 2.35e-05 s⁻¹
- kon (Human GDF15 protein [5]): 887000 M⁻¹ s⁻¹
- Kd [6]: 0.312 nM
- koff [6]: 8.24e-05 s⁻¹
- kon [6]: 265000 M⁻¹ s⁻¹
- Kd (Mouse GDF15 protein): 14.9 nM
- koff (Mouse GDF15 protein): 0.00241 s⁻¹
- kon (Mouse GDF15 protein): 162000 M⁻¹ s⁻¹

B2: Hu21H6D2 (antibody, human IgG1, kappa, V domains shown)
VH: QVQLVQSGAEVKKPGASVKVSCKASGYTFTGYIMNWVRQAPGQRLEWMGDIDPYYGDAKYNQKFKGKVTITVDKSASTAYMELSSLRSEDTAVYYCARRDYDHGSFAYWGQGTLVTVSS
VL: EIVLTQSPDFQSVTPKEKVTITCSASSSVNYMHWYQQKPDQSPKRLIYDTSKLASGVPSRFSGSGSGTDYTLTINSLEAEDAATYYCQQWSSNPPTFGQGTKLEIKR
notes: Humanized form of murine 21H6D2; human IgG1 constant region with L234A, L235A, G237A and kappa light chain constant region; also called hu21H6D2-IgG1-mut(L234A,L235A,G237A)
- binding result (human GDNF protein [1]): no binding (tested: 4 µg/mL)
- OD value (human GDNF protein [2]): 0.105 OD 450 nm-620 nm
- Kd (Human GDF15 protein [5]): 0.0515 nM
- koff (Human GDF15 protein [5]): 4.87e-05 s⁻¹
- kon (Human GDF15 protein [5]): 946000 M⁻¹ s⁻¹
- Kd [6]: 0.231 nM
- koff [6]: 6.13e-05 s⁻¹
- kon [6]: 265000 M⁻¹ s⁻¹
- Kd (Mouse GDF15 protein): 10.6 nM
- koff (Mouse GDF15 protein): 0.00116 s⁻¹
- kon (Mouse GDF15 protein): 110000 M⁻¹ s⁻¹

B3: HuVHH43-3 (Fc fusion)
heavy: QLQLVESGGGLVQPGGSLRLSCAASGHTYGMGWFRQAPGKAREIVSAISRSGSSTYYADSVKGRFTISRDNSKNTLYLQMNSLRAEDTAVYICGASTSALVPTTTGMYAYWGQGTRVTVSSEPKSSDKTHTCPPCPAPEAAGAPSVFLFPPKPKDTLMISRTPEVTCVVVDVSHEDPEVKFNWYVDGVEVHNAKTKPREEQYNSTYRVVSVLTVLHQDWLNGKEYKCKVSNKALPAPIEKTISKAKGQPREPQVYTLPPSREEMTKNQVSLTCLVKGFYPSDIAVEWESNGQPENNYKTTPPVLDSDGSFFLYSKLTVDKSRWQQGNVFSCSVMHEALHNHYTQKSLSLSPGK
notes: also called huVHH43-IgG1-mut(L234A,L235A,G237A); VHH humanized anti-GDF15 antibody
- OD value (OD 450 nm-620 nm) (human GDNF protein [7]): 0.273
- Kd (Human GDF15 protein [5]): < 0.001 nM
- koff (Human GDF15 protein [5]): < 1e-07 s⁻¹
- kon (Human GDF15 protein [5]): 573000 M⁻¹ s⁻¹
- Kd [6]: < 0.001 nM
- koff [6]: < 1e-07 s⁻¹
- kon [6]: 205000 M⁻¹ s⁻¹
- Kd (Mouse GDF15 protein): 1.25 nM
- koff (Mouse GDF15 protein): 6.58e-05 s⁻¹
- kon (Mouse GDF15 protein): 52500 M⁻¹ s⁻¹

— EP4818204A1 (Nanjing Leads Biolabs Co., Ltd., dated 2026)
